According to paper PMC3669286:

Biological target: Smad3 (UniProt P84022)
Assay: co-immunoprecipitation, blot for 14-3-3σ
Conditions: reference: wild type; sites S69,S74

## 14-3-3σ (from UniProt P31947) S69/74A
  binding against the reference: lost
